For data set [1], the target named is T1, ZgHGPRT/AMPK (Zobellia galactanivorans, UniProt G0LC40).
T1 construct: gene adkA; homodimer
The experiment in a line: steady-state kinetics, HPLC of IMP formation, non-linear regression. It is filed as biochemical. The following applies: HGPRT domain; apparent substrate inhibition at high Hyp; PRPP fixed at 5 mM; varied Hyp 0.5–17.2 mM; Mg2+. The text has this: (§1) steady-state kinetics, HPLC of IMP formation, non-linear regression on ZgHGPRT/AMPK

Substrate in data set [2]: Nc1ncnc2c1ncn2[C@@H]1O[C@H](COP(=O)(O)O)[C@@H](O)[C@H]1O
The experiment in a line: purified protein. Particulars: AMPK domain; apparent; ATP fixed at 3.2 mM; varied AMP 0.5–10 mM; Mg2+.

Substrate in data set [3]: Nc1ncnc2c1ncn2[C@@H]1O[C@H](COP(=O)(O)OP(=O)(O)OP(=O)(O)O)[C@@H](O)[C@H]1O
The experiment in a line: steady-state kinetics, HPLC of ADP formation, non-linear regression. It is filed as biochemical, Zobellia galactanivorans. The following applies: AMPK domain; apparent; AMP fixed at 3.2 mM; varied ATP 0.5–10 mM; Mg2+. The text has this:
steady-state kinetics, HPLC of ADP formation, non-linear regression on ZgHGPRT/AMPK

Substrate in data set [4]: O=P(O)(O)OC[C@H]1O[C@H](OP(=O)(O)OP(=O)(O)O)[C@H](O)[C@@H]1O
The experiment in a line: steady-state kinetics, HPLC of IMP formation, non-linear regression. It is filed as biochemical, Zobellia galactanivorans. Particulars: HGPRT domain; apparent; Hyp fixed at 5 mM; varied PRPP 0.5–17.2 mM; Mg2+.
Source text: as §1

Substrate in data set [5]: O=c1[nH]cnc2nc[nH]c12
Described as above. It is filed as biochemical, Zobellia galactanivorans. Particulars: HGPRT domain; apparent; PRPP fixed at 5 mM; varied Hyp 0.5–17.2 mM; Mg2+.
Source text: as §1

Data set [6] deals with the molecule itself. The experiment in a line: AUC; sedimentation velocity, 20 mM Tris-HCl pH 8, 20°C, 50,000 x g, profiles at 292 nm, c(s) by SEDFIT; protein 0.4 mg/ml.

For the molecule `O=c1[nH]cnc2nc[nH]c12` [compound 1, hypoxanthine], the “Value with variable substrate / Hyp^a” value in data set [1] is on record as 11.12 ± 1.02 mM.

B1: hypoxanthine-guanine phosphoribosyltransferase (HGPRT)/adenylate kinase (AMPK) from Zobellia galactanivorans (enzyme, UniProt G0LC40 1-368, looked up)
chain: MIKLHDKHFKPFLSEAQIKAAVKKVAEQVAADYKDETPIFVGVLNGAFMFISDFLKEYQYPCEVSFVKLSSYQGLTSTGIVETLLDVSENIEGRSVIILEDIIDTGRTLKKLVHLFSKANVKEFRVASLFYKSEVYNGEYTIDYVGIDIPDKFIVGYGLDYNELGRNLREVYQLNQKHMINLVLFGKPGAGKGTQAEFLKDKYNLKHISTGDLFRFNMKNDTELGKLAKSYIDRGDLVPDEVTIKMLQDAVEKNPEASGFIFDGFPRTVAQAEALDKFLATKDMKIDATIALEANDEVLIQRLLERGKVSGRSDDQDESKIRNRFDEYNEKTAPLKDFYENQGKFHSVNGIGAIDEITHRLGKVIEEL
notes: gene from GenScript cloned NheI-BamHI into pET28b(+); The vector encodes a thrombin cleavage site between the His6 tag and the enzyme; no cleavage is described, and the measured mass is compared with that of the His6-tagged protein (43.77 kDa); also called ZgHGPRT/AMPK; HGPRT/AMPK; source: E. coli BL21(DE3), purified (HisTrap FF, Superdex 200); not shown: His6, N-terminal, kept
Consider B1, for which the Km (in general, the concentration of substrate that gives half-maximal velocity) in data set [2] is given as 8.02 ± 0.40 mM; in data set [3] it was 0.77 ± 0.04 mM; in data set [4], 6.77 ± 0.41 mM; in data set [5] it was 1.01 ± 0.05 mM. The kcat (in general, the maximal rate divided by the concentration of active sites) stood at 0.16 s⁻¹ in data set [2], 0.07 ± 0.003 s⁻¹ in data set [3], 2.82 ± 0.21 s⁻¹ in data set [4] and 1.11 ± 0.06 s⁻¹ in data set [5]. The kcat/Km – broadly, the turnover number divided by the Michaelis constant – in data set [2] is 20 M⁻¹ s⁻¹; in data set [3] it was 100 M⁻¹ s⁻¹; in data set [4], 420 M⁻¹ s⁻¹; in data set [5] it was 1100 M⁻¹ s⁻¹. The stoichiometry N (usually the number of molecules, sites or subunits per partner or assembly) in data set [6] is 2.
